These results are taken from the supplement of paper PMC9170038.

The subject of the data set is K4 kissing-loop RNA reporter. As to the kind of experiment: apparent KD of K4 kissing-loop reporter; higher = weaker reporter binding. Particulars: Eterna round: R107. On the procedure: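 RNA-MaP round R107: designed RNA switches with theophylline, tryptophan, arginine or FMN aptamers are transcribed on-chip within common flanks. They are titrated with a labelled K4 kissing-loop RNA reporter in RNA-MaP buffer (100 mM Tris pH 7.5, 80 mM KCl, 4 mM MgCl2), without ligand or with the indicated ligand. Median apparent KD per design.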

[1] abbreviates: input ligand: theophylline 20 uM.
Where [2] appears, read: input ligand: tryptophan 2.4 mM.
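Note: bound reporter read as fluorescence of individual clusters on recovered sequencing chips by microscopy, with normalized cluster intensities fitted with a binding model.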

On to “ACGUAGCAGGCGGCCGCCACUCCGCAUAUGGAUCUCGAGUGAUGUUUGAGGGUGCCCAUCACAGCGAGGACCGGGCCAAUUAAGC [theeternabot_sameState_KL_Trp_B_10]”, for which the “apparent KD of K4 kissing-loop reporter” value (input ligand: FMN 200 uM) stood at 86.2 nM; the “apparent KD of K4 kissing-loop reporter” value (input ligand: arginine 13.2 mM) was found to be 105 nM; the “apparent KD of K4 kissing-loop reporter” value (input ligand: none) was determined as 127 nM; the “apparent KD of K4 kissing-loop reporter” value under setting [1] stood at 179 nM; the “apparent KD of K4 kissing-loop reporter” value under setting [2] came out at 254 nM.

For “GGUGUUGUUUGUGCUGUUUUCUUUGUUUCUCGAGGACCGGUACGGCCGCCACUCGAGUGAUGUUUGGGUAGUGAUGUUUGUUAGU [Bdazzled #1 Exc. TA]”, the “apparent KD of K4 kissing-loop reporter” value reads like this: (input ligand: FMN 200 uM) 241 nM; (input ligand: arginine 13.2 mM) 147 nM; (input ligand: none) 198 nM; under setting [1], 180 nM; under setting [2], 239 nM.

For “GUUACGCAUGGAAGGAGCGCUCUCCGGUUUAUUAACACAGUGAUGUUGUGAUUUUACCGAAAGCAGGUAGGUCGCCAUGUGUAAC [Ex Arginine B K4 12]”, the “apparent KD of K4 kissing-loop reporter” value came out at 356 nM (input ligand: FMN 200 uM); 320 nM (input ligand: arginine 13.2 mM); 416 nM (input ligand: none); 381 nM under setting [1]; 372 nM under setting [2].

“UGUUUUUACUGAAGGAGCGGCAAUUGAUACGUAGAUAUAGUGAUGUUAUAUAAGAUAGAGAGCCAGGUAGGUCGCAGAAUGAAUC [ExArgB.aD]”: the “apparent KD of K4 kissing-loop reporter” value stood at 209 nM (input ligand: FMN 200 uM); 188 nM (input ligand: arginine 13.2 mM); 190 nM (input ligand: none); 242 nM under setting [1]; 156 nM under setting [2].

For the sequence “UCGGACCCUGGAGGAUAUGAGUCGAGUGAUGUUUGGCGGUCCAUGCCGGUGCGGCGUUAUGCCCUUUUAGAAGGCCAGGGUCCGA [#2 Exclusion - FMN B Attempt #13 (HarryS)]”, the “apparent KD of K4 kissing-loop reporter” value by setting is: (input ligand: FMN 200 uM) 287 nM; (input ligand: arginine 13.2 mM) 182 nM; (input ligand: none) 307 nM; under setting [1], 351 nM; under setting [2], 289 nM.

“GUAGGAUGGUGCGAUACCAGACCUGCAGUGAUGUUGCGCCAUAGUGAGUGAUGUUCACCGGUCCCUUGGCAGCGCGUCCAUAAAG [Same State Theophylline B GF 17]”: the “apparent KD of K4 kissing-loop reporter” value reads like this: (input ligand: FMN 200 uM) 1060 nM; (input ligand: arginine 13.2 mM) 719 nM; (input ligand: none) 1250 nM; under setting [1], 1160 nM; under setting [2], 882 nM.

As to “AGACAUAUGACUGUAUGUUUCCAAGGUGUCAAGGAUAUAGUAAACACUAGAAGGUGAGAUCACAGGAGUGAUGUUCGAAAAUGGA [theeternabot_sameState_KL_FMN_A_14]”, the “apparent KD of K4 kissing-loop reporter” value runs as follows: (input ligand: FMN 200 uM) 419 nM; (input ligand: arginine 13.2 mM) 208 nM; (input ligand: none) 237 nM; under setting [1], 233 nM; under setting [2], 248 nM.

For the sequence “UUAGAGAUCUCAGGAUAUCAGUGAUGUUGGUGUAAAGAUCUGAGAUAGAAUUCUAUCUCAGAUCAAUGAGAAGGGAGAUCUCAUU [AK3.2 Exc FMN B]”, the “apparent KD of K4 kissing-loop reporter” value is, setting by setting: (input ligand: FMN 200 uM) 338 nM; (input ligand: arginine 13.2 mM) 179 nM; (input ligand: none) 192 nM; under setting [1], 219 nM; under setting [2], 174 nM.

Take “GAAGUACAGGCGGCCGCCACUAGUGAUGUUAGUGAUAAAAGAUAAAGUAUAUAUCGGCAUGUAGAUAGGACCGGGCCUGAUGGAG [uiiumullin]”: the “apparent KD of K4 kissing-loop reporter” value by setting is: (input ligand: FMN 200 uM) 118 nM; (input ligand: arginine 13.2 mM) 296 nM; (input ligand: none) 186 nM; under setting [1], 203 nM; under setting [2], 298 nM.

Regarding “AGGUACAAAAGUACCGCUAGAUCCACGGAAGGAGCGGCCGAAAGGCCAGGUAGGUCGCCGGGCAGUGAUGUUGCCGGAUCUAGCA [Omei KL Arginine A SS A v2]”, the “apparent KD of K4 kissing-loop reporter” value (input ligand: FMN 200 uM) came to 194 nM; the “apparent KD of K4 kissing-loop reporter” value (input ligand: arginine 13.2 mM) was found to be 171 nM; the “apparent KD of K4 kissing-loop reporter” value (input ligand: none) came to 200 nM; the “apparent KD of K4 kissing-loop reporter” value under setting [1] was 185 nM; the “apparent KD of K4 kissing-loop reporter” value under setting [2] was 169 nM.

Consider “GUGUGGAUCCGAAGGAGCGUCCGCAAUCCAGUGAUGUUGGGUGUUGGUUUUAGUAGACGAGGACAGGUAGGUCGCGGAUUUACAA [Same State Arginie B GF 23]”, for which the “apparent KD of K4 kissing-loop reporter” value is, setting by setting: (input ligand: FMN 200 uM) 133 nM; (input ligand: arginine 13.2 mM) 104 nM; (input ligand: none) 153 nM; under setting [1], 110 nM; under setting [2], 105 nM.

For the sequence “UGGGAUGGUUCGGCCGCCACUAUGGUGCAGUGAUGUUGCAUCGUAGUAAAUCAUUCCAUUUACCGUAGGACCGGGAACCUUACGC [Mavelege]”, the “apparent KD of K4 kissing-loop reporter” value (input ligand: FMN 200 uM) is 108 nM; the “apparent KD of K4 kissing-loop reporter” value (input ligand: arginine 13.2 mM) was found to be 82.7 nM; the “apparent KD of K4 kissing-loop reporter” value (input ligand: none) amounted to 94.9 nM; the “apparent KD of K4 kissing-loop reporter” value under setting [1] was found to be 83.4 nM; the “apparent KD of K4 kissing-loop reporter” value under setting [2] is 86.2 nM.

Regarding “AUCUAGAUGCGAAGGAGCGCCUCAACGCGCUAUCUAUGGAGUGAUGUUCCAACGUAUGAGAGGCAGGUAGGUCGCGCAUCUAGAA [Arg B Ex t1]”, the “apparent KD of K4 kissing-loop reporter” value (input ligand: FMN 200 uM) was found to be 129 nM; the “apparent KD of K4 kissing-loop reporter” value (input ligand: arginine 13.2 mM) was determined as 113 nM; the “apparent KD of K4 kissing-loop reporter” value (input ligand: none) turned out to be 132 nM; the “apparent KD of K4 kissing-loop reporter” value under setting [1] turned out to be 117 nM; the “apparent KD of K4 kissing-loop reporter” value under setting [2] came to 115 nM.

Regarding “AAGAGGUAGGCGGCCGCCACUAGUUGUGAACACAUACAAGCCAGUGAUGUUGGUAUGGUGGGCGGUAGGACCGGGCCUACCUGAA [Exclusion - Tryptophan B (Freestyle 17)]”, the “apparent KD of K4 kissing-loop reporter” value by setting is: (input ligand: FMN 200 uM) 230 nM; (input ligand: arginine 13.2 mM) 263 nM; (input ligand: none) 257 nM; under setting [1], 250 nM; under setting [2], 243 nM.

As for “CCUCACGUAGGACUAGUGAUGUUAGACUACCGAGGACCGGUACGGCCGCCACUCGUCGUACAAGAUAACCUUCCGCCAGUAUACG”, the “apparent KD of K4 kissing-loop reporter” value by setting is: (input ligand: FMN 200 uM) 110 nM; (input ligand: arginine 13.2 mM) 85.1 nM; (input ligand: none) 98.9 nM; under setting [1], 88.4 nM; under setting [2], 140 nM.

Turning to “CCAUCGCUAUUCGAUACCAGUCAUCACAUCUUUGGUGUGAUAAAGGAGUGAUGUUCCCAAGACCCUUGGCAGCGAAUAGUGAUGG [Theophylline B K4 11]”, the “apparent KD of K4 kissing-loop reporter” value (input ligand: FMN 200 uM) turned out to be 293 nM; the “apparent KD of K4 kissing-loop reporter” value (input ligand: arginine 13.2 mM) was determined as 222 nM; the “apparent KD of K4 kissing-loop reporter” value (input ligand: none) was 270 nM; the “apparent KD of K4 kissing-loop reporter” value under setting [1] turned out to be 172 nM; the “apparent KD of K4 kissing-loop reporter” value under setting [2] amounted to 250 nM.

For “CGAUACGGAAAUACGUGUCUCUAUUCAGAAGGAGCGUGGUAGUACACAGGUAGGUCGCUGAAAUUUAAACUAGUGAUGUUAGACU [JR_SSArginiA_Sub004]”, the “apparent KD of K4 kissing-loop reporter” value by setting is: (input ligand: FMN 200 uM) 1330 nM; (input ligand: arginine 13.2 mM) 742 nM; (input ligand: none) 1190 nM; under setting [1], 884 nM; under setting [2], 905 nM.

Consider “AGUUCCUCUGUCGAUACCAGCUUCAGUUGGCGGCCAGUGAUGUUGGUAUCGCCGAUGCCAAGCCCUUGGCAGCGACAUGAGACCC [Lausso]”, for which the “apparent KD of K4 kissing-loop reporter” value runs as follows: (input ligand: FMN 200 uM) 188 nM; (input ligand: arginine 13.2 mM) 187 nM; (input ligand: none) 169 nM; under setting [1], 111 nM; under setting [2], 197 nM.

For “UUUGGUUUCUCGGCCGCCACUCGUUGUCUAUCGGCUUCAGGGAUAUAGUGAUGUUAUGUAUAGAAGAGGACCGGGAGAAGGUUCU [ExTryptoB.Dx]”, the “apparent KD of K4 kissing-loop reporter” value was 280 nM (input ligand: FMN 200 uM); 267 nM (input ligand: arginine 13.2 mM); 347 nM (input ligand: none); 307 nM under setting [1]; 182 nM under setting [2].

For the sequence “CCGGGCGGCUGAAGGAGCGGGCGGGCCCGAGUGAUGUUCGGGUGGGCCGUGAGGUCCGGUGCCCAGGUAGGUCGCGGUUCCGCCC [#2 Same State - Arginine B Attempt #10 (HarryS)]”, the “apparent KD of K4 kissing-loop reporter” value (input ligand: FMN 200 uM) worked out at 200 nM; the “apparent KD of K4 kissing-loop reporter” value (input ligand: arginine 13.2 mM) was determined as 169 nM; the “apparent KD of K4 kissing-loop reporter” value (input ligand: none) came to 262 nM; the “apparent KD of K4 kissing-loop reporter” value under setting [1] is 215 nM; the “apparent KD of K4 kissing-loop reporter” value under setting [2] is 164 nM.

Take “CAUAGACAAGUGAUGUUUGUCAUAACCGAAGGAGCGUCUUUAAAGACAGGUAGGUCGCGGAUUAGUUAAGUUAUGAUUCUUUAUG [#19 K4 Arginine A Same State]”: the “apparent KD of K4 kissing-loop reporter” value (input ligand: FMN 200 uM) stood at 602 nM; the “apparent KD of K4 kissing-loop reporter” value (input ligand: arginine 13.2 mM) was 492 nM; the “apparent KD of K4 kissing-loop reporter” value (input ligand: none) turned out to be 704 nM; the “apparent KD of K4 kissing-loop reporter” value under setting [1] is 659 nM; the “apparent KD of K4 kissing-loop reporter” value under setting [2] was 453 nM.
